# Measured values from FireProtDB (doi:10.1002/prot.1147).
# “And” between values parts separate entries of the source, which are not always exact repeats. Identical values can stand only once.
# B1: Lysozyme C, P61626 (parent)
# chain: MKALIVLGLVLLSVTVQGKVFERCELARTLKRLGMDGYRGISLANWMCLAKWESGYNTRATNYNAGDRSTDYGIFQINSRYWCNDGKTPGAVNACHLSCSALLQDNIADAVACAKRVVRDPQGIRAWVAWRNRCQNRDVRQYVQGCGV
# Variants of: B1
# Conditions: Homo sapiens; pH 2.7; 64.9 °C; Thermal; DSC; Gly-HCl 0.05 M; reversible: yes; structure 1LZ1; whole UniProt chain shown
Variant,ddG of mutation (higher = less stable) [kcal/mol],heat capacity change of unfolding [kcal/mol/K]
G34A,1.39,1.58
G86A,0.12,1.65
G90A,0.36,1.43
G123A,0.62,1.36
G37A,1.77,1.58
G66A,-0.45,1.6
G147A,-0.14,1.29

# Same assay, conditions: Homo sapiens; pH 2.7; Thermal; DSC; Gly-HCl 0.05 M; reversible: yes; structure 1LZ1; whole UniProt chain shown
Variant,Tm [°C],"change of melting temperature, mutant - wild type (higher = more stable) [°C]",unfolding enthalpy (calorimetric),heat capacity change of unfolding [kcal/mol/K]
G34A,60.3,-4.6,96.3 kcal/mol and 103 kcal/mol,–
G86A,64.5,-0.4,108 kcal/mol,1.65
G40A,57.7,-7.2,77 kcal/mol and 88.4 kcal/mol,–
G90A,63.8,-1.1,109 kcal/mol,1.43
G123A,62.8,-2.1,103 kcal/mol,1.36
G55A,64,-0.9,108 kcal/mol,1.53
G37A,59.4,-5.5,102 kcal/mol and 111 kcal/mol,–
G66A,66.4,1.5,101 kcal/mol,1.6
G147A,65.4,0.5,99.7 kcal/mol,1.29

# Same assay, conditions: Homo sapiens; pH 2.6; Thermal; DSC; Gly-HCl 0.05 M; reversible: yes; structure 1LZ1; whole UniProt chain shown
Variant,Tm [°C],unfolding enthalpy (calorimetric) [kcal/mol]
G86A,62.8,103
G145A,61.6,104
G55A,62.4,104

# Same assay, conditions: Homo sapiens; pH 2.72; Thermal; DSC; Gly-HCl 0.05 M; reversible: yes; structure 1LZ1; whole UniProt chain shown
Variant,Tm [°C],unfolding enthalpy (calorimetric) [kcal/mol]
G86A,64.9,109

# Same assay, conditions: Homo sapiens; pH 3; Thermal; DSC; Gly-HCl 0.05 M; reversible: yes; structure 1LZ1; whole UniProt chain shown
Variant,Tm [°C],unfolding enthalpy (calorimetric) [kcal/mol]
G86A,69.2,114

# Same assay, conditions: Homo sapiens; pH 2.2; Thermal; DSC; Gly-HCl 0.05 M; reversible: yes; structure 1LZ1; whole UniProt chain shown
Variant,Tm [°C],unfolding enthalpy (calorimetric) [kcal/mol]
G145A,54.6,94.2

# Same assay, conditions: Homo sapiens; pH 3.16; Thermal; DSC; Gly-HCl 0.05 M; reversible: yes; structure 1LZ1; whole UniProt chain shown
Variant,Tm [°C],unfolding enthalpy (calorimetric) [kcal/mol]
G145A,71.1,118
G90A,72.2,120

# Same assay, conditions: Homo sapiens; pH 2.38; Thermal; DSC; Gly-HCl 0.05 M; reversible: yes; structure 1LZ1; whole UniProt chain shown
Variant,Tm [°C],unfolding enthalpy (calorimetric) [kcal/mol]
G90A,58.2,99.9
G55A,58.1,97

# Same assay, conditions: Homo sapiens; pH 2.64; Thermal; DSC; Gly-HCl 0.05 M; reversible: yes; structure 1LZ1; whole UniProt chain shown
Variant,Tm [°C],unfolding enthalpy (calorimetric) [kcal/mol]
G90A,62.6,106

# Same assay, conditions: Homo sapiens; pH 2.3; Thermal; DSC; Gly-HCl 0.05 M; reversible: yes; structure 1LZ1; whole UniProt chain shown
Variant,Tm [°C],unfolding enthalpy (calorimetric) [kcal/mol]
G123A,56.1,90.8

# Same assay, conditions: Homo sapiens; pH 2.65; Thermal; DSC; Gly-HCl 0.05 M; reversible: yes; structure 1LZ1; whole UniProt chain shown
Variant,Tm [°C],unfolding enthalpy (calorimetric) [kcal/mol]
G123A,61.3,97.5

# Same assay, conditions: Homo sapiens; pH 3.2; Thermal; DSC; Gly-HCl 0.05 M; reversible: yes; structure 1LZ1; whole UniProt chain shown
Variant,Tm [°C],unfolding enthalpy (calorimetric) [kcal/mol]
G123A,71.8,112
G66A,75.1,117

# Same assay, conditions: Homo sapiens; pH 3.18; Thermal; DSC; Gly-HCl 0.05 M; reversible: yes; structure 1LZ1; whole UniProt chain shown
Variant,Tm [°C],unfolding enthalpy (calorimetric) [kcal/mol]
G55A,72.4,119

# Same assay, conditions: Homo sapiens; pH 2.4; Thermal; DSC; Gly-HCl 0.05 M; reversible: yes; structure 1LZ1; whole UniProt chain shown
Variant,Tm [°C],unfolding enthalpy (calorimetric) [kcal/mol]
G66A,61.1,94.9

# Same assay, conditions: Homo sapiens; pH 2.68; Thermal; DSC; Gly-HCl 0.05 M; reversible: yes; structure 1LZ1; whole UniProt chain shown
Variant,Tm [°C],unfolding enthalpy (calorimetric) [kcal/mol]
G66A,66,102

# Same assay, conditions: Homo sapiens; pH 2.67; Thermal; DSC; Gly-HCl 0.05 M; reversible: yes; structure 1LZ1; whole UniProt chain shown
Variant,Tm [°C],unfolding enthalpy (calorimetric) [kcal/mol]
G147A,64.9,99.7

# Same assay, conditions: Homo sapiens; pH 2.79; Thermal; DSC; Gly-HCl 0.05 M; reversible: yes; structure 1LZ1; whole UniProt chain shown
Variant,Tm [°C],unfolding enthalpy (calorimetric) [kcal/mol]
G147A,67.1,102

# Same assay, conditions: Homo sapiens; pH 2.8; Thermal; DSC; Gly-HCl 0.05 M; reversible: yes; structure 1LZ1; whole UniProt chain shown
Variant,Tm [°C],unfolding enthalpy (calorimetric) [kcal/mol]
G147A,67.2,103
